Test results: the Human Domainome abundance scans (Beltran et al. 2025)
± gives the uncertainty stated by the source.

B1: Ankyrin-1, residues 1405 to 1484; numbered along this chain, P16157 (parent)
chain: MKMAVISEHLGLSWAELARELQFSVEDINRIRVENPNSLLEQSVALLNLWVIREGQNANMENLYTALQSIDRGEIVNMLE

Variants of: B1
Assay: abundance fitness (aPCA) (normalised: wild type 0, dead -1); higher = more abundant; growth selection in yeast, the domain comes from the species named
Settings: Homo sapiens

Row | Variant | abundance fitness
1 | R19S | -0.123 ± 0.084
2 | N62R | 0.032 ± 0.1
3 | N62C | -0.126 ± 0.11
4 | S24W | -0.925 ± 0.25
5 | S24Y | -0.856 ± 0.26
6 | E74R | -0.65 ± 0.092
7 | M1V | 0 ± 0.27
8 | Q68T | -0.256 ± 0.11
9 | Q68M | -0.181 ± 0.094
10 | Q68W | -0.146 ± 0.071
11 | R72A | -0.632 ± 0.1
12 | I28Q | -0.577 ± 0.22
13 | I28C | -0.198 ± 0.087
14 | I28V | -0.1 ± 0.051
15 | I28T | -0.43 ± 0.11
16 | I28S | -0.797 ± 0.11
17 | S38Y | -0.749 ± 0.25
18 | S38R | -0.478 ± 0.08
19 | S38E | -0.514 ± 0.23
20 | V51Y | -0.023 ± 0.2
21 | V51N | -0.159 ± 0.12
22 | V51S | 0.128 ± 0.051
23 | N59D | 0.245 ± 0.11
24 | N59F | -0.388 ± 0.17

Row | Variant | abundance fitness
25 | D71E | 0.075 ± 0.075
26 | D71C | -0.144 ± 0.094
27 | D71F | -0.627 ± 0.2
28 | D71M | -0.127 ± 0.14
29 | D71G | 0.095 ± 0.04
30 | A66M | -0.332 ± 0.2
31 | A66D | -0.884 ± 0.15
32 | A66L | -0.977 ± 0.11
33 | E80A | -0.083 ± 0.081
34 | E80Y | -0.048 ± 0.1
35 | K2Y | -0.318 ± 0.11
36 | L49Y | -0.037 ± 0.069
37 | A58S | -0.078 ± 0.083
38 | A58E | -0.192 ± 0.1
39 | N48L | -0.835 ± 0.091
40 | N48C | -0.495 ± 0.17
41 | N48R | -0.006 ± 0.052
42 | N48K | 0.098 ± 0.081
43 | H9Y | -0.388 ± 0.13
44 | H9M | -0.302 ± 0.12
45 | L79A | 0.002 ± 0.064
46 | L17D | -1.01 ± 0.27
47 | L17R | -1.03 ± 0.17
48 | I31T | -0.774 ± 0.3

Row | Variant | abundance fitness
49 | I31M | -0.524 ± 0.12
50 | I31H | -1.07 ± 0.28
51 | I31S | -0.938 ± 0.18
52 | A18Q | -0.936 ± 0.38
53 | A18G | -0.075 ± 0.048
54 | S13V | -0.5 ± 0.049
55 | S13F | -0.333 ± 0.14
56 | S13R | -0.442 ± 0.09
57 | S13N | -0.404 ± 0.18
58 | W14A | -0.799 ± 0.16
59 | W14T | -0.758 ± 0.14
60 | W14S | -0.89 ± 0.14
61 | G55E | -0.266 ± 0.18
62 | D27E | -0.08 ± 0.069
63 | D27H | -0.121 ± 0.17
64 | D27N | -0.49 ± 0.22
65 | T65E | 0.015 ± 0.074
66 | T65K | -0.055 ± 0.12
67 | T65C | -0.002 ± 0.087
68 | E16G | 0.018 ± 0.047
69 | E16D | 0.068 ± 0.089
70 | E16P | -0.091 ± 0.064
71 | L12H | 0.274 ± 0.15
72 | V44T | 0.161 ± 0.081

Row | Variant | abundance fitness
73 | V44A | 0.148 ± 0.059
74 | V44N | 0.296 ± 0.084
75 | L63V | -0.136 ± 0.042
76 | L63T | -0.493 ± 0.15
77 | L63Q | -0.075 ± 0.23
78 | L63N | -0.806 ± 0.36
79 | L10K | -0.509 ± 0.38
80 | L10G | -0.971 ± 0.21
81 | M60E | -0.42 ± 0.18
82 | Q42M | -0.172 ± 0.12
83 | Q42A | -0.257 ± 0.064
84 | Q42I | -0.915 ± 0.27
85 | Q42P | -1.04 ± 0.23
86 | Q42C | -0.061 ± 0.095
87 | N35Q | -0.247 ± 0.16
88 | N35T | -0.3 ± 0.12
89 | I75V | -0.098 ± 0.073
90 | F23H | -0.829 ± 0.36
91 | M78T | 0.085 ± 0.091
92 | E54G | -0.115 ± 0.049
93 | E54P | -0.977 ± 0.25
94 | E54T | -0.455 ± 0.098
95 | E54W | -0.62 ± 0.11
96 | L47N | -0.914 ± 0.35

Row | Variant | abundance fitness
97 | S7D | -0.821 ± 0.16
98 | A4W | -0.397 ± 0.15
99 | G11A | -0.47 ± 0.079
100 | G11D | -0.171 ± 0.23
101 | G11W | -0.893 ± 0.18
102 | E8P | -0.24 ± 0.1
103 | N37D | -0.023 ± 0.13
104 | N37H | -0.366 ± 0.29
105 | N37P | -1.09 ± 0.48
106 | L39F | -0.068 ± 0.14
107 | L39R | -0.554 ± 0.074
108 | N57Y | 0.093 ± 0.21
109 | N57E | 0.163 ± 0.15
110 | N57H | -0.255 ± 0.29
111 | N57A | -0.212 ± 0.13
112 | N57M | -0.075 ± 0.13
113 | R53N | -0.31 ± 0.26
114 | R53H | -0.758 ± 0.23
115 | E34W | -0.559 ± 0.28
116 | E34R | -0.204 ± 0.12
117 | E34P | -0.992 ± 0.49
118 | E34N | -0.134 ± 0.35
119 | E34M | -0.265 ± 0.34
120 | E34Y | -0.565 ± 0.38

Row | Variant | abundance fitness
121 | R32G | -0.212 ± 0.06
122 | R32K | -0.3 ± 0.12
123 | E26H | -0.113 ± 0.2
124 | R30A | -0.215 ± 0.059
125 | R30C | -0.022 ± 0.12
126 | R30L | -0.213 ± 0.057
127 | R30T | -0.226 ± 0.086
128 | R30Q | -0.049 ± 0.072
129 | E41K | 0.117 ± 0.094
130 | E41Q | -0.1 ± 0.12
131 | I70R | -0.437 ± 0.078
132 | I70M | -0.651 ± 0.19
133 | S43W | -0.805 ± 0.17
134 | S43M | -1.05 ± 0.32
135 | S43G | 0 ± 0.049
136 | S43P | -0.721 ± 0.13
137 | M3F | 0.105 ± 0.097
138 | S69D | -0.06 ± 0.087
139 | E20C | -0.125 ± 0.077
140 | E20V | -0.175 ± 0.062
141 | V25W | -0.265 ± 0.069
142 | V25I | -0.143 ± 0.21
143 | V25N | 0.114 ± 0.14
144 | V25L | -0.073 ± 0.036

Row | Variant | abundance fitness
145 | N29K | 0.021 ± 0.1
146 | N29D | 0.041 ± 0.079
147 | N29A | -0.062 ± 0.052
148 | L67C | -0.743 ± 0.28
149 | L67M | -0.092 ± 0.1
150 | L67W | -0.999 ± 0.19
151 | L67S | -0.829 ± 0.14
152 | G73S | -0.192 ± 0.04
153 | G73Y | -0.339 ± 0.085
154 | G73N | -0.33 ± 0.15
155 | G73M | -0.396 ± 0.085
156 | G73V | -0.172 ± 0.038
157 | V76A | -0.423 ± 0.08
158 | N77M | -0.152 ± 0.12
159 | N77V | -0.078 ± 0.11
160 | N77D | -0.347 ± 0.19
161 | N77C | -0.479 ± 0.18
162 | N77P | -0.283 ± 0.11
163 | N77S | -0.005 ± 0.073
164 | N77W | 0.018 ± 0.1
165 | V33C | 0.174 ± 0.12
166 | V33H | -0.043 ± 0.049
167 | V33F | 0.021 ± 0.12
